T1: human GIP receptor (human) (UniProt P48546)
T1 sequence (looked up): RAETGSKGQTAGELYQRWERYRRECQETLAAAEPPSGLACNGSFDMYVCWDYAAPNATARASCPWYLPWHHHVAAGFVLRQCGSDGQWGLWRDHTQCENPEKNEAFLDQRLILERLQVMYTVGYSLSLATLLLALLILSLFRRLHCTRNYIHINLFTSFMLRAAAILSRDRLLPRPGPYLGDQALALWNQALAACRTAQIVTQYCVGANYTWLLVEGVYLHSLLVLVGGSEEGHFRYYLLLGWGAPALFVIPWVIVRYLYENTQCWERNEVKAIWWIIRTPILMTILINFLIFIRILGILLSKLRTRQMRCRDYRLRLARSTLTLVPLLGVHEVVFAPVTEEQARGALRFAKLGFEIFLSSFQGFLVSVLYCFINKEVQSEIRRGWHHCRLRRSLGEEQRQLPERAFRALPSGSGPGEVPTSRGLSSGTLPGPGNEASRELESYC

B1: P001 (peptide)
peptide: YXEGTXTSDYXIXLDKQAQAEFVKWLLKGGPSSGAPPPSK
modifications: X1 is Aib; X2 is αMePhe; X3 is Aib; X4 is Aib; C-terminal primary amide
B2: P007 (peptide)
peptide: B1 peptide
modifications: Aib at 2; αMePhe at 6; Aib at 11; Aib at 13; K at position 24 ε-amino conjugated with ([2-(2-amino-ethoxy)-ethoxy]-acetyl)2-(γ-Glu)1-CO-(CH2)16-CO2H; C-terminal primary amide

Columns and labels:
[1] = target: human GLP-1 receptor (human) (UniProt P43220); assay: radioligand competition ([125I]GLP-1 displaced), membranes of cells over-expressing human GLP-1R; Ki by Cheng-Prusoff
[2] = target: T1, human GIP receptor (human); assay: radioligand competition ([125I]GIP displaced), membranes of cells over-expressing human GIPR; Ki by Cheng-Prusoff
[3] = target: human GLP-1 receptor (human) (UniProt P43220); assay: cell-based or functional assay
[4] = target: T1, human GIP receptor (human); assay: cell-based or functional assay

Chain of human GLP-1 receptor (human) (P43220 24-463): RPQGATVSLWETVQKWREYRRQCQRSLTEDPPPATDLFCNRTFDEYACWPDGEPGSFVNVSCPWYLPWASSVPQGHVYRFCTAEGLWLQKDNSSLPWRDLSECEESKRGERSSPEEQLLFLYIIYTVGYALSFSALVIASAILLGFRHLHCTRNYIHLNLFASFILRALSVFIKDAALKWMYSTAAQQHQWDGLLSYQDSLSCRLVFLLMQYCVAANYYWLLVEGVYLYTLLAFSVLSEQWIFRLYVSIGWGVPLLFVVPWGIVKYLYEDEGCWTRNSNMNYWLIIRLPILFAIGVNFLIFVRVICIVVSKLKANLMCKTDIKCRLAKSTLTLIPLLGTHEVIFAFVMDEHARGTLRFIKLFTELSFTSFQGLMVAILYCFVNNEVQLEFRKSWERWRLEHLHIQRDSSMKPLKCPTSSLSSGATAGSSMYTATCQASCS

| Binder | Ki ratio (Ki of endogenous ligand / Ki of test compound) [1] | Ki ratio (Ki of endogenous ligand / Ki of test compound) [2] | EC50 value (ratio: EC50 of endogenous ligand / EC50 of test compound), cAMP reporter gene (luciferase) assay, HEK293/CRE/GLP-1R cells [3] | EC50 value (ratio: EC50 of endogenous ligand / EC50 of test compound), LANCE Ultra cAMP assay, HEK293/GIPR cells [4] |
| --- | --- | --- | --- | --- |
| B1 | 19.5 | 8.82 | 52.1 | 7.13 |
| B2 | 0.47 | – | 5.84 | – |

From patent EP4813403A1, “USE OF GLP-1R/GIPR DOUBLE-TARGET AGONIST IN PREPARING ANIMAL DRUG” (Hangzhou Zhongmeihuadong Pharmaceutical Co., Ltd., priority 2023, dated 2025)
